# Experimental data as given in paper PMC11938383, “Antibodies targeting ADAM17 reverse neurite outgrowth inhibition by myelin-associated inhibitors” (Life Science Alliance, 2025).
# T1: neuronal receptor/co-receptor/p75 complex (Lingo-1-Fc, NgR1, p75, formed with GT1b-Na) (mouse | human, UniProt Q9D1T0 35-516; Q9BZR6 30-430; P08138 31-210)
# T1 construct: Lingo-1, mouse, residues 35-516; NgR1, human, residues 30-430; p75, human, residues 31-210 (the version used in the pull-down assays); also called NgR1, Lingo-1, p75 complex; neuronal complex; source: assembled from purified HEK293 proteins on protein A-Sepharose in the presence of GT1b-Na; not shown: Fc, C-terminal, kept; Fc, C-terminal, cleaved; copies: + +
# T1 sequence (looked up) 1: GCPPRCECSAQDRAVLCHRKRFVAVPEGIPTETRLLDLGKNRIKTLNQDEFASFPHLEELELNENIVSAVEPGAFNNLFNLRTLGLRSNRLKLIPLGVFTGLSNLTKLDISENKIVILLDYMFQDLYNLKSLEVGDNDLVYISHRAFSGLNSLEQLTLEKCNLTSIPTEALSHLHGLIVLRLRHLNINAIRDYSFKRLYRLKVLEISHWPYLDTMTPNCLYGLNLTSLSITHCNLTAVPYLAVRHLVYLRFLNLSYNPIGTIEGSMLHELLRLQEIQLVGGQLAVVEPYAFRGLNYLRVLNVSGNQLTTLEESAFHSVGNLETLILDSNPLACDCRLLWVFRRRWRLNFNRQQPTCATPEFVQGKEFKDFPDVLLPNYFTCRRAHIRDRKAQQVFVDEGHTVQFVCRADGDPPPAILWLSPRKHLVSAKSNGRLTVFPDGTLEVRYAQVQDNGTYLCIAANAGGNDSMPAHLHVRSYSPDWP
# T1 sequence (looked up) 2: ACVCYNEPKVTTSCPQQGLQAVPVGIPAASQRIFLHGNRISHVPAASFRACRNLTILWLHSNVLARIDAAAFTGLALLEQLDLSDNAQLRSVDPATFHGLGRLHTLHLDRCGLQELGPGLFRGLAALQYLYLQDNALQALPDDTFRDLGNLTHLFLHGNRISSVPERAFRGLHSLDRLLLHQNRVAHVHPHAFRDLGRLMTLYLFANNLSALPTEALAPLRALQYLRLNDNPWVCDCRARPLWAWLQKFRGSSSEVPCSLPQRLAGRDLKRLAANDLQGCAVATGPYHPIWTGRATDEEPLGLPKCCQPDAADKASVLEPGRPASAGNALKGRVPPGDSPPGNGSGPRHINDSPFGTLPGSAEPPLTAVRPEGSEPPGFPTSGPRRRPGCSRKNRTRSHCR
# T1 sequence (looked up) 3: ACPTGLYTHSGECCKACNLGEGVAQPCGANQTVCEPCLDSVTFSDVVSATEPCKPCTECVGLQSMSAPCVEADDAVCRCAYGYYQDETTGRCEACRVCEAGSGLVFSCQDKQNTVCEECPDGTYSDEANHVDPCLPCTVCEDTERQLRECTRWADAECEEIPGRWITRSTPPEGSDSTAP
# B1: p75-Fc (Fc fusion)
# chain: T1 sequence (looked up) 3
# B2: MAG (residues 22-504) (domain or fragment, human, UniProt P20916 22-504, looked up)
# chain: WGAWMPSSISAFEGTCVSIPCRFDFPDELRPAVVHGVWYFNSPYPKNYPPVVFKSRTQVVHESFQGRSRLLGDLGLRNCTLLLSNVSPELGGKYYFRGDLGGYNQYTFSEHSVLDIVNTPNIVVPPEVVAGTEVEVSCMVPDNCPELRPELSWLGHEGLGEPAVLGRLREDEGTWVQVSLLHFVPTREANGHRLGCQASFPNTTLQFEGYASMDVKYPPVIVEMNSSVEAIEGSHVSLLCGADSNPPPLLTWMRDGTVLREAVAESLLLELEEVTPAEDGVYACLAENAYGQDNRTVGLSVMYAPWKPTVNGTMVAVEGETVSILCSTQSNPDPILTIFKEKQILSTVIYESELQLELPAVSPEDDGEYWCVAENQYGQRATAFNLSVEFAPVLLLESHCAAARDTVQCLCVVKSNPEPSVAFELPSRNVTVNESEREFVYSERSGLVLTSILTLRGQAQAPPRVICTARNLYGAKSLELPFQ
# notes: myelin-associated glycoprotein (MAG), human, residues 22-504; also called myelin-associated glycoprotein; source: HEK293, purified (protein A Sepharose, size-exclusion on SD-200); not shown: Fc, C-terminal, cleaved
# B3: Lingo-1 ectodomain (35-516) (domain or fragment, mouse, UniProt Q9D1T0 35-516, looked up)
# chain: T1 sequence (looked up) 1
# notes: Lingo-1 (LINGO-1), mouse, ectodomain, residues 35-516; Used in size-exclusion chromatography; It migrates as a tetramer; source: HEK293, purified (protein A Sepharose, size-exclusion on SD-200)
# B4: p75 ectodomain (residues 31-250) (domain or fragment, human, UniProt P08138 31-250, looked up)
# chain: ACPTGLYTHSGECCKACNLGEGVAQPCGANQTVCEPCLDSVTFSDVVSATEPCKPCTECVGLQSMSAPCVEADDAVCRCAYGYYQDETTGRCEACRVCEAGSGLVFSCQDKQNTVCEECPDGTYSDEANHVDPCLPCTVCEDTERQLRECTRWADAECEEIPGRWITRSTPPEGSDSTAPSTQEPEAPPEQDLIASTVAGVVTTVMGSSQPVVTRGTTDN
# notes: p75 (p75 NGF receptor), human, entire ectodomain, residues 31-250; Used in size-exclusion chromatography; migrates as an apparent dimer; One sentence of the methods prints 21-250 for this construct; also called longer version of p75; source: HEK293, purified (protein A Sepharose, size-exclusion on SD-200)
# Experiments:
# [1] = target: neuron-myelin 5-mer signaling complex (NgR1, Lingo-1-Fc, p75, MAG, GT1b-Na) (mouse | human) (UniProt Q9D1T0); experiment: BLI; Blitz (Forte Bio); 5-mer complex (via Lingo-Fc) or p75-Fc loaded at 50 μg/ml on protein A sensors; ADAM17 ECD (E406A) or D+C in solution; HBS (20 mM Hepes, 150 mM NaCl pH 7.4); apparent KD
# p75-Fc (human) = p75-Fc (human) (UniProt P08138); experiment: as above
# [2] = target: ADAM17 ectodomain (ECD), residues 215-650, active-site mutant E406A (human, UniProt P78536 215-650, E406A); experiment: BLI
# [3] = target: T1, neuronal receptor/co-receptor/p75 …; experiment: pull-down; Lingo-1-Fc as bait on protein A-Sepharose; untagged NgR1, p75 (31-210) and MAG as prey; NgR1 and p75 pre-incubated with GT1b-Na (molar ratio 1:10), with or without GT1b-Na; 10 mM Hepes pH 7.4, 150 mM NaCl, 0.05% Triton-X100; 25°C, 1 h; two washes; SDS-PAGE; details: both partners purified
# [4] = target: the molecule itself; experiment: SEC; individual proteins (Lingo-1, NgR1, p75 31-250) run alone on the SD-200 column, in the presence of GT1b-Na
molecule,measurement,setting,value
ADAM17 D+C (disintegrin + cysteine-rich domain region) (from UniProt P78536 474-646) (domain or fragment),Kd,[1],350 nM
same,Kd,p75-Fc (human),350 nM
B1,Kd,[2],> 10000 nM
B2,binding result,[3],binds
B3,stoichiometry N,[4],4
B4,stoichiometry N,[4],2
